The source of these data is patent publication US6512102B1, “Compositions and methods of diagnosis and treatment using casein kinase I” (Chiron Corporation, priority 1998, dated 2003).

Data set [1] deals with Lef-1 dependent transcription. As to the kind of experiment: Lef-1 enhancer luciferase reporter assay in Cos cells. In kind it is cell-based. Particulars: for Wnt signal transduction (Lef-luciferase): variant co-transfected with Wnt-1; for signal transduced by dominant negative GSK3 (DNGSK3): variant co-transfected with dominant negative GSK3 and Lef-1; for luciferase activity transduced by Dvl-1: variant with Dvl-1. The procedure:
(§1) Combinations of Wnt-1, CKIε, CKI kinase dead variant (lys→arg 38) and Lef-1 were transfected into Cos cells with a luciferase gene driven by multiple copies of Lef enhancer elements. As an internal control of transfection efficiency, the β-galactosidase gene driven by the SV40 promoter was co-transfected in all samples. 24 hours after transfection, cells were lysed and the lysate was tested for luciferase activity. The luciferase activity was normalized with respect to β-galactosidase activity. […] Dorsoanterior index (DAI) grade numbers were assigned to the phenotypes of the embryos. A grade 5 embryo is normal; a grade 3 embryo is cyclopic (one eye); a grade 1 embryo has a tail fin and somites but no head (acephalic); and a grade 0 embryo has no dorsoanterior structures (Kao et al., 1988).
The effect of CKI on Lef-1 dependent transcription in Cos mammalian cells was examined. A luciferase reporter gene driven by multiple copies of the Lef-I enhancer sequence was used. When only Wnt-I or lef-I or CKIε was transfected with the reporter construct, luciferase activity was induced only 2 to 3 fold (FIG. 1A). When Lef-1 was cotransfected with either Wnt-1 or CKIε, luciferase activity was induced 30 or 12 fold respectively.
Luciferase reporter plasmid contains multiple Lef-I enhancer sites upstream of the fos basal promoter. Various DNA plasmids encoding Wnt-1, CKIε , Dvl-1, GSK3 etc. were co-transfected with a luciferase reporter plasmid and a SV40 β-galactosidase plasmid into 24-well Cos cell culture. For each well, 0.5 μg total DNA was in a ratio of 0.08 μg:016 μg:0.02 μg for signaling molecules:luciferase: β-gal. SV40 β-gal construct was used as an internal transfection control, since β-gal activity is independent of the Wnt-1 signaling molecules. Transfection was done using LT1 (5 μl/μg DNA) (Panvera Co. # MIR23 10). Each sample was transfected in triplex repeats to obtain a statistical value. After 24 hours, cells were washed once with PBS and lysed in 50 μl/well lysis buffer supplied with the luciferase assay kit (Promega cat# EI500). 10 μl of each sample was aliquoted into two sets of tubes, one set for the luciferase assay and another for β-gal chemiluminescent reporter assay (Galacto-Light, TROPIX Inc. #BL100G). The result of the luciferase assay was divided by the corresponding β-gal activity, and then averaged.
A general note: Reporter assays use an easily measured gene product as a stand-in for the process of interest.

Data set [2] deals with Lef-1 reporter gene activity. As to the kind of experiment: Lef-1 reporter gene assay in 293 cells after antisense transfection. Type of data set: cell-based. As to conditions: Wnt-1 expressed in 293 cells. The procedure: FIGS. 4A-C Lef-1 reporter gene activity induced by Wnt (A), Dv1-3 (B), or mutant β-catenin (C) is inhibited by CKIε antisense polynucleotides (CKI-a and CKI-b), but not by the reverse sequence control (RC). 293 cells were plated at a density of 1.5*10^5 cells per 12-well dish 16 hours prior to transfection 6 ul 0.5 mM cationic lipitoid and 2 ul 100 uM polynucleotide in 50 ul opti-MEM (Life Technologies) was mixed together and added dropwise to cells in 1 ml of fresh media. After 24 hours cells, cells were washed with opti-MEM and transfected with luciferase reporter plasmids (0.02 mg lef-1, 0.2 lef-1 reporter, 0.03 mg renilla luciferase) control using lipofectamine (Life Technologies). Cells were assayed for luciferase activity 48 hours after transfection of antisense polynucleotides.
One method for measuring activation of gene expression by the Wnt pathway is to use the Lef-1 reporter gene assay. Antisense polynucleotides were transfected into cells by using cationic peptoid reagents followed by transfection with Lef-1, Lef-1 reporter, and Wnt-1 plasmids using lipofectamine (Life Technologies). Lef-1 reporter gene activity was measured using the Dual-Luciferase Reporter Assay System (Promega) according to the manufacturers specifications. […]

Data set [3] relates to ventralized Xenopus embryo. As to the kind of experiment: Rescue of dorsal structure of ventralized Xenopus embryos by injected RNA. Type of data set: in vivo. As to conditions: RNA injected into ventralized embryos. The procedure:
as §1
Furthermore, when the variant was co-transfected with CKIε into Cos cells, Lef-1-dependent luciferase activity was inhibited. […] Thus, the variant interferes with Wnt signaling, acting as a dominant negative.

The test system of another data set is casein. As to the kind of experiment: Kinase activity of construct transfected into Cos cells, casein as substrate. Type of data set: biochemical. Particulars: substrate casein protein. The procedure: It was transiently transfected into Cos cells and its activity was tested using substrate casein protein.

B1: Wnt-1: Wnt-1 expressed from transfected plasmid (protein, UniProt P04628 28-370, looked up)
Proto-oncogene Wnt-1: ANSSGRWWGIVNVASSTNLLTDSKSLQLVLEPSLQLLSRKQRRLIRQNPGILHSVSGGLQSAVRECKWQFRNRRWNCPTAPGPHLFGKIVNRGCRETAFIFAITSAGVTHSVARSCSEGSIESCTCDYRRRGPGGPDWHWGGCSDNIDFGRLFGREFVDSGEKGRDLRFLMNLHNNEAGRTTVFSEMRQECKCHGMSGSCTVRTCWMRLPTLRAVGDVLRDRFDGASRVLYGNRGSNRASRAELLRLEPEDPAHKPPSPHDLVYFEKSPNFCTYSGRLGTAGTAGRACNSSSPALDGCELLCCGRGHRTRTQRVTERCNCTFHWCCHVSCRNCTHTRVLHECL
As to B1, the luciferase activity induced in data set [1] (cotransfected with Lef-1, Cos cells) is 30 fold. Besides, in data set [2], the “stimulation of Lef-1 reporter gene transcription over vector transfected cells” value is 4-6 fold.

B2: CKI lys→arg 38: kinase-inactive CKIε construct in which lysine 38 in the kinase domain was mutated to arginine (protein)
chain: MELRVGNKYRLGRKIGSGSFGDIYLGANIASGEEVAIRLECVKTKHPQLHIESKFYKMMQGGVGIPSIKWCGAEGDYNVMVMELLGPSLEDLFNFCSRKFSLKTVLLLADQMISRIEYIHSKNFIHRDVKPDNFLMGLGKKGNLVYIIDFGLAKKYRDARTHQHIPYRENKNLTGTARYASINTHLGIEQSRRDDLESLGYVLMYFNLGSLPWQGLKAATKRQKYERISEKKMSTPIEVLCKGYPSEFSTYLNFCRSLRFDDKPDYSYLRQLFRNLFHRQGFSYDYVFDWNMLKFGAARNPEDVDRERREHEREERMGQLRGSATRALPPGPPTGATANRLRSAAEPVASTPASRIQQTGNTSPRAISRADRERKVSMRLHRGAPANVSSSDLTGRQEVSRLAASQTSVPFDHLGK
modifications: Mus Casein Kinase I epsilon
Consider B2, for which the “rescue of embryonic dorsal structure” value in data set [3] is recorded as “failed to do so”. For the same molecule, in data set [1] (variant co-transfected with CKIε), the Lef-1-dependent luciferase activity entry is recorded as “inhibited”. For the same molecule, in data set [1], the “Wnt signal transduction (Lef-luciferase)” value is “blocked the Wnt signal transduction in a dose-dependent manner”, the “signal transduced by dominant negative GSK3 (DNGSK3)” value was “did not inhibit the signal” and the “luciferase activity transduced by Dvl-1” value was “inhibited”. The “Wnt signal transduction (Lef-luciferase)” value in data set [1] (listed as CKIKD) is given as “inhibits Wnt signaling”. In data set [1] (listed as variant), the “signal transduced by dominant negative GSK3 (DNGSK3)” value is reported as “did not reduce the signal” and the “luciferase activity transduced by Dvl-1” value is “inhibited the effect of Dv1-1 on luciferase activity”. The kinase activity entry in the data set with casein is listed as “no detectable kinase activity”.
